Non-standard residues stand in square brackets, D forms with d.
B1: Ac-wrrrir-NH2 (peptide)
peptide: Ac-[dW][dR][dR][dR][dI][dR]-NH2
SMILES: CC[C@@H](C)[C@@H](NC(=O)[C@@H](CCCNC(=N)N)NC(=O)[C@@H](CCCNC(=N)N)NC(=O)[C@@H](CCCNC(=N)N)NC(=O)[C@@H](Cc1c[nH]c2ccccc12)NC(C)=O)C(=O)N[C@H](CCCNC(=N)N)C(N)=O
B2: Ac-wrrrrl-NH2 (peptide)
peptide: Ac-[dW][dR][dR][dR][dR][dL]-NH2
SMILES: CC(=O)N[C@H](Cc1c[nH]c2ccccc12)C(=O)N[C@H](CCCNC(=N)N)C(=O)N[C@H](CCCNC(=N)N)C(=O)N[C@H](CCCNC(=N)N)C(=O)N[C@H](CCCNC(=N)N)C(=O)N[C@H](CC(C)C)C(N)=O
B3: Ac-wrrrrr-NH2 (peptide)
peptide: Ac-[dW][dR][dR][dR][dR][dR]-NH2
SMILES: CC(=O)N[C@H](Cc1c[nH]c2ccccc12)C(=O)N[C@H](CCCNC(=N)N)C(=O)N[C@H](CCCNC(=N)N)C(=O)N[C@H](CCCNC(=N)N)C(=O)N[C@H](CCCNC(=N)N)C(=O)N[C@H](CCCNC(=N)N)C(N)=O
B4: Ac-wrrril-NH2 (peptide)
peptide: Ac-[dW][dR][dR][dR][dI][dL]-NH2
SMILES: CC[C@@H](C)[C@@H](NC(=O)[C@@H](CCCNC(=N)N)NC(=O)[C@@H](CCCNC(=N)N)NC(=O)[C@@H](CCCNC(=N)N)NC(=O)[C@@H](Cc1c[nH]c2ccccc12)NC(C)=O)C(=O)N[C@H](CC(C)C)C(N)=O

Experiments:
[1] = target: proprotein convertase PC2; experiment: enzyme inhibition, pERTKR-MCA hydrolysis (fluorescence), competitive Ki
proprotein convertase PC2, sequence (P21661 109-637): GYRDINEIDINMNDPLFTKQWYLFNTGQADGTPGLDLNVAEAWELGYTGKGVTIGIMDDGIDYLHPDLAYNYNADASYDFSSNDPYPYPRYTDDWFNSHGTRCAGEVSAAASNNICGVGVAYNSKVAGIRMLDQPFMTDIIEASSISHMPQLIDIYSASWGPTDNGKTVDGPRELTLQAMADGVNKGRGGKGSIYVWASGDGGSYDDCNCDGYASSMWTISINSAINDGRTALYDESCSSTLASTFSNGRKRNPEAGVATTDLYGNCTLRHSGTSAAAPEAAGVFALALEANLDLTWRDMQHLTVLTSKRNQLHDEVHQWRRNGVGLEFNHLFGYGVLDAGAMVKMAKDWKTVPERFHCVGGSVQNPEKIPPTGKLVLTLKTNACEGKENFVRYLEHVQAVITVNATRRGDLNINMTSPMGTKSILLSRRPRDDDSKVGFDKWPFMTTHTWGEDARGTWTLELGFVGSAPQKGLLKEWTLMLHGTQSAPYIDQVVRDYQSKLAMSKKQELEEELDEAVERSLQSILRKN

[2] = target: recombinant truncated mouse furin (mouse) (UniProt P23188); experiment: as above
recombinant truncated mouse furin (mouse), sequence (P23188 108-714): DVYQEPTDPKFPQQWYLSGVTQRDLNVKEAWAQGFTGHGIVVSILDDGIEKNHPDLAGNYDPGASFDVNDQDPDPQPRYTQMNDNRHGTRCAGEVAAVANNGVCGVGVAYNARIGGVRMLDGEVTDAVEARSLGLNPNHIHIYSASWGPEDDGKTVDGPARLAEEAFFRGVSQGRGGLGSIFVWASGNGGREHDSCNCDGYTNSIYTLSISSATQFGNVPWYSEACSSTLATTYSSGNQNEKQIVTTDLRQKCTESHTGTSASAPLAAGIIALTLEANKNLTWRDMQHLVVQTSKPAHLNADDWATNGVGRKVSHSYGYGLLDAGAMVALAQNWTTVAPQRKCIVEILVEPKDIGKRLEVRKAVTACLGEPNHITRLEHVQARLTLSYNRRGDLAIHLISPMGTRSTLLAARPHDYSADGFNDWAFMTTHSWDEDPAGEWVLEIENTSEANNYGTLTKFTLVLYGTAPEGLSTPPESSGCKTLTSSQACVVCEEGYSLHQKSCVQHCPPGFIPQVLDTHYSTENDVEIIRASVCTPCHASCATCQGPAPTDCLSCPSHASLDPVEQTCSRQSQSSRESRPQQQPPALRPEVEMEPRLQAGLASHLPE

| Ki [1] | Ki [2] | Binder |
| --- | --- | --- |
| 399 µM | 7 µM | B1 |
| 203 µM | 5.3 µM | B2 |
| 334 µM | 2.4 µM | B3 |
| 601 µM | 22.7 µM | B4 |
